Test results reported in US10253087B2, “CCR2 antagonist peptides” (UNIVERSITE PIERRE ET MARIE CURIE (Paris 6), priority 2011, dated 2019).
“Also recorded” adds a separate entry of the source. Where two headings read alike, the source gives them in different places. Non-standard residues stand in square brackets, D forms with d. Residues, ends and D or L forms follow the SMILES beside them.

How the values were obtained:
CCR2 [1] = target: T1, CCR2 (Homo sapiens, UniProt P41597); assay: Calcium flux assay, CCL2-induced calcium release on HEK-CCR2; type: cell-based
T1 construct: expressed in transfected cells
T1 sequence (P41597 whole entry): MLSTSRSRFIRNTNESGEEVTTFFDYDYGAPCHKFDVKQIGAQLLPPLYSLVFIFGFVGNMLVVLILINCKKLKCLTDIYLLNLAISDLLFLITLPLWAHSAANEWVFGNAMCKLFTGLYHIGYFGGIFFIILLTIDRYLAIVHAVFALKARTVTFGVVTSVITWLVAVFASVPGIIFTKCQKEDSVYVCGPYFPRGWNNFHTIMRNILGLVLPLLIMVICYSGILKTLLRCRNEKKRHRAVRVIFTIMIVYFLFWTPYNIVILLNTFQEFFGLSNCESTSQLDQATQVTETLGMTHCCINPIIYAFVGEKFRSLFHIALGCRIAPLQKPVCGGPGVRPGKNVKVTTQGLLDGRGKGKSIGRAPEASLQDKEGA
Protocol: Cytosolic-free calcium assay was measured by fluorescent detection with the HitHunter™ Calcium No WashPLUS (Ca NWPLUS) assay kit (DiscoveRex, #90-0091). Briefly, HEK or CHO expressing the chemokine receptor of interest (5.104) were plated overnight at 37° C., 5% CO2 before pre-loading with a calcium sensitive dye (Ca NWPLUS working reagent) supplemented with probenecid (Sigma-Aldrich, #P8761) to avoid calcium dye leakage from the cells, for 1 h at 37° C. Cells were then treated with control buffer or peptides at various concentrations and appropriate agonist. Signal was measured as function of time on a fluorescent plate reader equipped with fluidic handling (FlexStation 3, Molecular Devices). Maximum change in fluorescence over baseline (peak signal) was used to determine agonist response, as quantified using SoftMax Pro software. All experiments were run in triplicate, and results are representative of at least three independent experiments.

CCR2 [2] = target: T1, CCR2; assay: β-arrestin recruitment assay (PathHunter), CCL2-induced; type: cell-based; conditions: HEK-CCR2
Protocol: Recruitment of β-arrestin in live cells was measured by chemoluminescence detection with the PathHunter™ eXpress β-Arrestin assay kit (DiscoveRex, #93-00446E1). Briefly, 100 μL PathHunter eXpress cells were expressing CCR2 were plated on a 96-well tissue culture treated plate for 48 hours at 37° C., 5% CO2. Cells were first incubated with ECL1 (C) inverso or control peptide and before adding 10 μL of the agonist, CCL2 diluted in OCC medium to achieve the EC80 determined beforehand or with OCC medium alone, for respectively 60 and 90 min at 37° C., 5% CO2. The reaction was stopped by adding 55 μL of the Working Detection Reagent Solution (PathHunter detection reagent) for 90 min at Room temperature. Chemoluminescent signal was read on a luminescent plate reader (TriStar LB 941, Berthold Technologies, Thoiry, France). Assays were run in triplicates.

CCR2 [3] = target: T1, CCR2; assay: CCL2-Alexa 647 binding assay on HEK-CCR2; conditions: competition binding
Protocol: Binding was performed with the same cells. 200.000 cells were pre-incubated for 30 minutes at 4° C. in 100 μl buffer (PBS containing 0.5% BSA, 0.2% EDTA and NaN3 0.01%) with recombinant human CCL2 (50 nM, 100 nM and 500 nM), ECL1 (C) inverso (11.3 μM, 28.2 μM and 56.3 μM) or with buffer. After, 50 nM CCL2-alexa 647 (Almac) were add for 30 minutes at 4° C. and washed three times with 1 ml of cold buffer. Cells were incubated with 10 μl anti-human-CCR2 (BD pharmingen) for 30 minutes at 4° C. in the dark and washed three times with 1 ml of cold buffer. Cells and beads were counted on FACSCalibur flow cytometer and data were analysed with FlowJo software.

CCR2 [4] = target: T1, CCR2; assay: Radioligand binding assay, I125-CCL2 on HEK-CCR2; conditions: competition binding
Protocol: Binding assay was carried out using I125-CCL2 (specific activity 2200 Ci/mmol; Perkin elmer, inc.). 300.000 HEK cells stably expressing CCR2 and native cells were incubated with I125-CCL2 in the presence or absence of recombinant human CCL2 (10 nM or 100 nM) or ECL1 (C) inverso (1-10-30 μM) in 200 μl buffer (PBS containing 0.5% BSA and 0.01% HEPES). After 1 h incubation at 37° C., cells were washed three times with 1 ml of cold washing solution. Gamma emissions were then counted in the cell pellet with gamma counter. Non-specific binding represented less than 15% of total binding and was subtracted from total binding to define specific I125-CCL2 binding.

CCR2 [5] = target: T1, CCR2; assay: Migration assay, HEK-CCR2 induced by CCL2; type: cell-based; conditions: up to 500 μM
Protocol: (§1) Migration assays were performed in 24-transwell inserts (Corning Costar Avon, France) with 8 μm polycarbonate filter for HEK or CHO cells and 5 μm for MBMC. […] The bottom of each well was filled with 600 μL pre-warmed chemotaxis buffer at indicated chemokine concentration. The plates were then incubated for 4 hours at 37° C. in a 5% CO2 atmosphere. […] Before counting the cells by flow cytometry, mouse leukocytes were immunophenotyped with a mix of fluorescent antibodies (anti-mouse Ly6G-PE, anti-mouse NK1.1-PE, anti-mouse […], anti-mouse 7/4-FITC, BD Biosciences) and HEK expressing chemokine receptors with appropriate fluorescent anti-human chemokine receptor. Data were analysed with FlowJo software and results are expressed as a number of cells migrating in the presence or in the absence of chemoattractant. Experiments were run in triplicate, and results are representative of at least three independent experiments.

CCR5 = target: T2, CCR5 (Homo sapiens, UniProt P51681); assay: Migration assay, HEK-CCR5 induced by CCL5; type: cell-based; conditions: up to 500 μM
T2 construct: expressed in transfected cells
T2 sequence (P51681 whole entry): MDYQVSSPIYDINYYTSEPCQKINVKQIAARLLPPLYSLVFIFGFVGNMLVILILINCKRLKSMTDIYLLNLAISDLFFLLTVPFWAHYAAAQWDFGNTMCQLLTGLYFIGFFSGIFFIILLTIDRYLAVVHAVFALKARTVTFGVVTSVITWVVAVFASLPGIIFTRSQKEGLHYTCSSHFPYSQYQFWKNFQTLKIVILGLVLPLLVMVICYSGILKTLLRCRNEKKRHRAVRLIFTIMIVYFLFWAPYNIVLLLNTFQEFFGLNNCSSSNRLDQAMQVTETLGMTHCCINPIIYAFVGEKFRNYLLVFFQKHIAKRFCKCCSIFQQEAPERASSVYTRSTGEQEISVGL
Protocol: as §1

CX3CR1 = target: T3, CX3CR1 (Homo sapiens, UniProt P49238); assay: Migration assay, HEK-CX3CR1 induced by CX3CL1; type: cell-based; conditions: up to 500 μM
T3 construct: expressed in transfected cells
T3 sequence (P49238 1-355): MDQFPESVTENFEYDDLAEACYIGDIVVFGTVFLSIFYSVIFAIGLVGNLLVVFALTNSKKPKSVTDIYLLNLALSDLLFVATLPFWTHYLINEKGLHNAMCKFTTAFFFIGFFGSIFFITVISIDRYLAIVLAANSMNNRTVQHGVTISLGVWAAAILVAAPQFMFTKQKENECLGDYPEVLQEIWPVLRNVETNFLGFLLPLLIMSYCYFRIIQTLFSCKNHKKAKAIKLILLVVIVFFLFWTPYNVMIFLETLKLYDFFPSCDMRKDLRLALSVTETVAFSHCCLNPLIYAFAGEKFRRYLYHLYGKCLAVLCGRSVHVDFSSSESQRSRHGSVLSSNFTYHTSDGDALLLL
Protocol: as §1

mouse monocytes = assay: Migration assay, mouse monocytes / leukocytes (MBMC); type: cell-based; conditions: up to 500 μM
Protocol: as §1

HEK-CCR2 [6] = test system: HEK-CCR2
HEK-CCR2 [7] = assay: Cytotoxicity on HEK-CCR2; conditions: 4 hours of incubation at 37° C., 5% CO2, various concentrations

Protocol for MBCM: Mouse bone marrow cells (MBMC) were obtained from C57BL/6 mice.
Cells were immunophenotyped by adding a mix of fluorescent antibodies (anti LY-6G-PE, anti CD11b-PerCP, anti 7/4-FITC, anti F4/80-APC, anti NK-PE) and counted by FACSCalibur flow cytometry with predetermined number of beads (Polybead, carboxylate microsphere Polyscience, Inc) added to the samples. Data were analyzed with FlowJo.

## CCL2: chemokine, natural agonist of CCR2
CCR2 [1]
  EC80 of CCL2 for calcium release: 50 nM
CCR2 [2]
  EC80 of CCL2 for β-arrestin recruitment: 12.5 nM
CCR2 [3]
  displacement of the binding of CCL2-Alexa-647 with HEK-CCR2: could displace dose-dependently; also recorded: displaces dose-dependently
CCR2 [4]
  displacement of bound [125I]-CCL2 on HEK-CCR2: could displace dose-dependently

## CKLFTGL [ECL1 (C)]
CCR2 [5]
  induction of chemotaxis by the peptide itself, HEK-CCR2: did not induced chemotaxis
CCR5
  induction of chemotaxis by the peptide itself, HEK-CCR5: did not induced chemotaxis
CX3CR1
  induction of chemotaxis by the peptide itself, HEK-CX3CR1: did not induced chemotaxis
Mouse monocytes
  induction of chemotaxis by the peptide itself, mouse leukocytes: did not induced chemotaxis
HEK-CCR2 [6]
  cytotoxicity on HEK-CCR2: no significant cell death
MBCM
  cytotoxicity on MBCM: no significant cell death

## CC(C)C[C@@H](N)C(=O)NCC(=O)N[C@@H](C(=O)N[C@H](Cc1ccccc1)C(=O)N[C@H](CC(C)C)C(=O)N[C@H](CCCCN)C(=O)N[C@H](CS)C(=O)O)[C@H](C)O [ECL1 (C) inverso, LGTFLKC] (H-[dL]G[dT][dF][dL][dK][dC]-OH; N-terminus and C-terminus assumed)
HEK-CCR2 [7]
  cytotoxicity on HEK-CCR2: No cytotoxicity effect
